Measured values: article PMC6733935, “A convenient and efficient total solid-phase synthesis of DOTA-functionalized tumor-targeting peptides for PET imaging of cancer” (EJNMMI Research, 2019)
Numbered stars: 1 amine (or outer) side, 2 acyl side, 3 side chain; on linkers, the order of the positions; unused ones are H or OH. Square brackets hold non-standard residues; d marks the D form. Peptide text beside a SMILES is read from it. * marks the point of attachment. DOTA = O=C(O)CN1CCN(CC(=O)O)CCN(CC(=O)*)CCN(CC(=O)O)CC1; Cha = N[C@@H](CC1CCCCC1)C(=O)O; X1 = O=C(CCC(=O)[*:2])CN[*:1]; Nle = CCCC[C@H](N)C(=O)O

Key:
[1] = molecular target: T1, BN/GRP receptor-positive PC3 human prostate cancer cells (Homo sapiens, UniProt P30550); test: Saturation binding assay on PC3 cells; details: n = 3-5 experiments
T1 construct: BN/GRP receptor-positive MDA-MB-231, MCF7, T47D human breast cancer, and PC3 human prostate cancer lines; host or cells: MDA-MB-231, MCF7, T47D (human breast cancer), PC3 (human prostate cancer); intact cells
Protocol: The cell binding of ^68Ga-radiolabeled peptides into BN/GRP receptor-positive MDA-MB-231, MCF7, T47D human breast cancer, and PC3 human prostate cancer lines (American Type Culture Collection, Rockville, MD, USA) was performed according to the method described previously. In brief, ∼ 300,000 cells (in 300 μL in low-serum media) were incubated with various amounts of radiopeptides, ranging between 0.1 and 25 nM of peptide (prepared from the serial dilutions of HPLC-purified radiopeptides), in duplicate for 60 min at room temperature. The initial concentrations of ^68Ga-labeled peptides were determined according to a well-established HPLC technique with simultaneous detection by UV absorbance. As the amount of BN peptide in the reaction mixture was too small to be detected by UV absorption at 220 nm, the radioactive peptide chromatograms from the HPLC analysis were compared (with UV chromatograms) with those of known concentrations of the corresponding nonradioactive peptides for the mass determination. Incubation was terminated by dilution with cold saline (300 μL) and the cells were pelleted by centrifugation. The cell pellets was then rapidly washed with cold saline to remove any unbound peptide and centrifuged to collect supernatants. Radioactivity in the cell pellet and the washings was measured in a γ-counter. Non-specific binding was determined in the presence of ~ 200-fold molar excess of unlabeled BN peptide. Specific binding is calculated by subtracting the non-specifically bound radioactivity from that of the total binding. The dissociation constant (Kd) was calculated using a plot of cell bound activity versus the concentration of the radioligand using GraphPad Prism software (GraphPad Software Inc., San Diego, CA, USA).

in vivo = test: in vivo; design: species or system Balb/c mice; details: Balb/c, mouse, iv
Protocol: Approval for the animal protocol used in this study was obtained from the Institutional Animal Care and Use Committee. Animal studies were conducted according to the international regulations governing the safe and proper use of laboratory animals. In vivo biodistribution were performed on healthy Balb/c mice (n = 3–5 in each group, body weight 19–22 g) at 1 and 2 h after intravenous injection of the HPLC-purified radiopeptide (100 μL, 15–20 μCi, total peptide dose ~ 20 ng) via the lateral tail vein. The mice were sacrificed by cervical dislocation at specified time points and blood samples were withdrawn with a syringe from the heart. Major organs such as lungs, stomach, spleen, pancreas, intestines, liver, kidneys, etc. were isolated, weighed, and radioactivity in each organs and tissues were measured using a γ-scintillation counter. Uptake of radioactivity in the tissues and organs was expressed as the percent injected dose per gram (% ID/g) of tissue/organ, which was calculated by comparison with standard solutions representing 10% of the injected dose per animal. For the clearance studies, radioactivity in the urine with bladder and feces is expressed as the percent of the injected dose per tissue (% ID). Values are expressed as mean ± SD for a group of 3-5 animals at each time point.

MDA-MB-231 tumors = test: in vivo; assay type: in vivo, nude mice; details: for Uptake in Tumor: nude mice with MDA-MB-231 tumors, mean ± SD, n = 3-5
Protocol: BN/GRP receptor-positive MDA-MB-231 and PC3 cell lines (American Type Culture Collection, Rockville, USA) were grown as monolayers at 37 °C in a humidified atmosphere containing RPMI-1640 culture media with 10% fetal bovine serum (FBS) in tissue culture flasks. Twenty-four hours prior to conducting the tumor implantation, the media was replaced with RPMI-1640/10% FBS. The cells were grown to 80-90% confluency and harvested by trypsinization. After centrifugation, about 50 million cells were suspended in 1 mL media for implantation into mice. To prepare cells for inoculation, MDA-MB-231 or PC3 cancer cells with media were centrifuged, the media decanted, and the cell pellet was mixed with phosphate-buffered saline (PBS) to reach a concentration of approximately 5 million cells per 100 μL PBS. Human MDA-MB-231 breast cancer xenografts female mouse models were used for in vivo tumor-targeting experiments. For the implantation of tumor xenografts, approximately five million MDA-MB-231 cells in suspension of 100 μL sterile PBS were injected subcutaneously into the left thigh of each mouse. Tumors were allowed to grow for 4-6 weeks by which tumors had reached weights of 200-300 mg. After sufficient growth of tumors, animals were injected with 20-30 μCi of the radiotracers and the animals were sacrificed at specified time points. The uptake of ^68Ga-radiolabeled peptides in the tumors and other major body organs was calculated by γ-counting as described above.

[2] = total radioactivity, %ID excreted in Feces
[3] = total radioactivity, Uptake in Blood
[4] = total radioactivity, Uptake in Bone
[5] = total radioactivity, Uptake in Intestines (measured without their contents)
[6] = total radioactivity, Uptake in Kidneys
[7] = total radioactivity, Uptake in Pancreas
[8] = total radioactivity, Uptake in Spleen
[9] = total radioactivity, Uptake in Stomach

Question: Which “Bmax (apparent number of binding sites per cell)” value ([1]; SD < 15%) does the source give for `CCCC[C@H](NC(=O)[C@H](Cc1c[nH]cn1)NC(=O)[C@H](CC1CCCCC1)NC(=O)[C@@H](NC(=O)[C@H](C)NC(=O)[C@H](Cc1c[nH]c2ccccc12)NC(=O)[C@H](CCC(N)=O)NC(=O)[C@H](CS)NC(=O)CNC(=O)CNC(=O)CCC(=O)CNC(=O)CN1CCN(CC(=O)O)CCN(CC(=O)O)CCN(CC(=O)O)CC1)C(C)C)C(=O)N[C@@H](CCSC)C(N)=O` [^68Ga-DOTA-ALA-BN Cyclen, metal not drawn] ({DOTA}-[X1]GGCQWAV[Cha]H[Nle]M-NH2) here?
Answer: The value was 2.12 × 10^5 sites/cell.

Question: What about the Kd ([1]; ~300,000 cells, 0.1-25 nM radiopeptide, 60 min, room temperature, mean ± SD) of the same compound?
Answer: Its Kd is 9.7 ± 2.01 nM.

Question: And the “Uptake in Lungs” value (in vivo; 1 h)?
Answer: Its value is 1.39 ± 0.30 %ID/g.

Question: What about the “%ID excreted in Urine” value (in vivo; 2 h) of the same compound?
Answer: The value was 46.0 ± 9.12 %ID.

Question: And the “Uptake in Liver” value (in vivo; 2 h)?
Answer: The value was 1.75 ± 0.26 %ID/g.

Question: And the “Uptake in Lungs” value (in vivo; 2 h)?
Answer: Its value is 0.98 ± 0.23 %ID/g.

Question: What about the dose excreted at 1 h (in vivo; [2]) of the same compound?
Answer: The dose excreted at 1 h was 1.07 ± 0.17%.

Question: What about the dose excreted at 2 h (in vivo; [2]) of the same compound?
Answer: Its dose excreted at 2 h is 0.91 ± 0.14%.

Question: What about the dose excreted at 1 h (in vivo; total radioactivity, %ID excreted in Urine) of the same compound?
Answer: The dose excreted at 1 h was 53 ± 6.8%.

Question: And the tissue uptake at 1 h (in vivo; [3])?
Answer: Its tissue uptake at 1 h is 0.8 ± 0.16 %ID/g.

Question: What about the tissue uptake at 2 h (in vivo; [3]) of the same compound?
Answer: Its tissue uptake at 2 h is 0.51 ± 0.12 %ID/g.

Question: And the tissue uptake at 1 h (in vivo; [4])?
Answer: Its tissue uptake at 1 h is 0.24 ± 0.04 %ID/g.

Question: And the tissue uptake at 2 h (in vivo; [4])?
Answer: The tissue uptake at 2 h was 0.15 ± 0.02 %ID/g.

Question: What about the tissue uptake at 1 h (in vivo; [5]) of the same compound?
Answer: The tissue uptake at 1 h was 0.88 ± 0.15 %ID/g.

Question: And the tissue uptake at 2 h (in vivo; [5])?
Answer: Its tissue uptake at 2 h is 0.73 ± 0.12 %ID/g.

Question: What about the tissue uptake at 1 h (in vivo; [6]) of the same compound?
Answer: Its tissue uptake at 1 h is 5.89 ± 1 %ID/g.

Question: And the tissue uptake at 2 h (in vivo; [6])?
Answer: The tissue uptake at 2 h was 3.05 ± 0.41 %ID/g.

Question: And the tissue uptake at 1 h (in vivo; total radioactivity, Uptake in Liver)?
Answer: Its tissue uptake at 1 h is 2.3 ± 0.37 %ID/g.

Question: What about the tissue uptake at 1 h (in vivo; [7]) of the same compound?
Answer: Its tissue uptake at 1 h is 1.54 ± 0.31 %ID/g.

Question: What about the tissue uptake at 2 h (in vivo; [7]) of the same compound?
Answer: The tissue uptake at 2 h was 0.89 ± 0.12 %ID/g.

Question: And the tissue uptake at 1 h (in vivo; [8])?
Answer: Its tissue uptake at 1 h is 0.1 ± 0.01 %ID/g.

Question: What about the tissue uptake at 2 h (in vivo; [8]) of the same compound?
Answer: Its tissue uptake at 2 h is 0.08 %ID/g.

Question: What about the tissue uptake at 1 h (in vivo; [9]) of the same compound?
Answer: Its tissue uptake at 1 h is 1.5 ± 0.37 %ID/g.

Question: And the tissue uptake at 2 h (in vivo; [9])?
Answer: Its tissue uptake at 2 h is 0.44 ± 0.1 %ID/g.

Question: What about the “Uptake in Spleen” value (MDA-MB-231 tumors; female, nude, mouse, in vivo, 2 h) of the same compound?
Answer: Its value is 0.17 ± 0.02 % ID/g.

Question: What about the “Uptake in Tumor” value (MDA-MB-231 tumors; 1 h p.i.) of the same compound?
Answer: Its value is 1.82 ± 0.26 % ID/g.

Question: And the “Uptake in Tumor” value (MDA-MB-231 tumors; 2 h p.i.)?
Answer: The value was 0.84 ± 0.13 % ID/g.
